Source: paper PMC7840993, “Fluorescent thermal shift-based method for detection of NF-κB binding to double-stranded DNA” (Scientific Reports, 2021)

How the values were obtained:
[1] = target: T1, p50 1-367 (complete RHD) (human) (UniProt P19838); assay: fluorescence thermal shift (SYPRO Orange); settings: apparent KD, two equivalent κB sites considered; 1.5 µM protein; ΔTmax 2.462 °C; Thermal shift: 50 mM Tris-HCl pH 7.5, 225 mM NaCl, 2.25% glycerol, 25 min at 4 °C, then 25-95 °C melt; EMSA: 10 mM Tris-HCl pH 7.5, 0.5 mM EDTA, 65 mM KCl, 5 mM
T1 sequence: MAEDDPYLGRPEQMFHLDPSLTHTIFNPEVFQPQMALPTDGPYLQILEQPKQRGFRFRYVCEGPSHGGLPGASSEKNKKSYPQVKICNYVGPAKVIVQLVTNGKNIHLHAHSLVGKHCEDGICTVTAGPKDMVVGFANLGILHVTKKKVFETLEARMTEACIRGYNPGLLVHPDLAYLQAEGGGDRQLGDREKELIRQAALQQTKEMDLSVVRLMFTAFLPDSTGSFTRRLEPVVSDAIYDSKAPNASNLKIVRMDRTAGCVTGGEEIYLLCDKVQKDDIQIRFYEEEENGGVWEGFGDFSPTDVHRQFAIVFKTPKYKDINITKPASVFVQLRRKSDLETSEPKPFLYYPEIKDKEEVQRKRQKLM

[2] = target: p65/RelA 1-306 (complete RHD) (human) (UniProt Q04206); assay: fluorescence thermal shift (SYPRO Orange); settings: apparent KD, two equivalent κB sites considered; 1.5 µM protein; ΔTmax 1.678 °C; Thermal shift: 50 mM Tris-HCl pH 7.5, 225 mM NaCl, 2.25% glycerol, 25 min at 4 °C, then 25-95 °C melt; EMSA: 10 mM Tris-HCl pH 7.5, 0.5 mM EDTA, 65 mM KCl, 5 mM
Sequence of p65/RelA 1-306 (complete RHD) (human) (Q04206 1-306): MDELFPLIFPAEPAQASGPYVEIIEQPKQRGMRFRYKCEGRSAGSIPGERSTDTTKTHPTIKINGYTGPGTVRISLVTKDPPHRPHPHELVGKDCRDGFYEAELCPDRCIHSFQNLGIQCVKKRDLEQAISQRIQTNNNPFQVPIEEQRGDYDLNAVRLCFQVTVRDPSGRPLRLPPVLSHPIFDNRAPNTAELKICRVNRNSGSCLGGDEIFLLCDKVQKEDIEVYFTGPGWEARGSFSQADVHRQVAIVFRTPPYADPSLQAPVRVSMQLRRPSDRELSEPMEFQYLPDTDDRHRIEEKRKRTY

[3] = target: p65/RelA (Homo sapiens, UniProt Q04206); assay: inhibition of […]κB dsDNA binding by fluorescence thermal shift assay (also lowers Tm of the protein without DNA); EMSA
Sequence of p65/RelA (Q04206 1-306): as above

[4] = target: T2, p50 (Homo sapiens, UniProt P19838); assay: inhibition of dsDNA binding by fluorescence thermal shift assay
T2 construct: gene NFKB1; p50_1-367 (aa 1–367, complete RHD), HIS-tagged
T2 sequence (P19838 1-367): T1 sequence

[5] = target: p65/RelA 1-306 (complete RHD) (human, UniProt Q04206 1-306); assay: fluorescence thermal shift (SYPRO Orange); 10 µM DNA, 1.5 µM protein; Tm raised about 1-1.5 °C (1κB and 2κB range); Thermal shift: 50 mM Tris-HCl pH 7.5, 225 mM NaCl, 2.25% glycerol, 25 min at 4 °C, then 25-95 °C melt; EMSA: 10 mM Tris-HCl pH 7.5, 0.5 mM EDTA, 65 mM KCl, 5 mM MgCl2, 1 mM DTT, 100 µg/mL BSA, 10% glycerol, 50 ng/µl poly(dI-dC), 45 min at 30 °C; settings: protein: recombinant; chain copies: 2; label: none; only one strand given
Sequence of p65/RelA 1-306 (complete RHD) (Q04206 1-306): as above

[6] = target: p50 1-367 (complete RHD) (human, UniProt P19838 1-367); assay: fluorescence thermal shift (SYPRO Orange); 10 µM DNA, 1.5 µM protein; Tm raised about 2-3 °C (1κB and 2κB range); Thermal shift: 50 mM Tris-HCl pH 7.5, 225 mM NaCl, 2.25% glycerol, 25 min at 4 °C, then 25-95 °C melt; EMSA: 10 mM Tris-HCl pH 7.5, 0.5 mM EDTA, 65 mM KCl, 5 mM MgCl2, 1 mM DTT, 100 µg/mL BSA, 10% glycerol, 50 ng/µl poly(dI-dC), 45 min at 30 °C; settings: protein: recombinant; tags: His, N-terminal Myc; chain copies: 2; label: none; only one strand given

“AATTCGGGACTTTCCCGTCGGGACTTTCC (double strand) [2κB dsDNA]” showed a Kd [1] of 0.794 µM and a Kd [2] of 2.23 µM.

In the case of `CC1=C(CO)C(=O)O[C@@H]([C@@H](C)[C@H]2CC[C@H]3[C@@H]4C[C@H]5O[C@]56[C@@H](O)C=CC(=O)[C@]6(C)[C@H]4CC[C@]23C)C1` [WFA, withaferin A], the IC50 [3] is reported as about 16.4 µM and the IC50 [4] is reported as about 19.1 µM.

B1: 1κB dsDNA (dsDNA)
DNA 1: AGTTGAGGGGACTTTCCCAGGC
DNA 2: GCCTGGGAAAGTCCCCTCAACT
B1: binds [5]; binds [6].
